The supplement of paper PMC7877785
± gives the uncertainty stated by the source.

Experiment: self-splicing fitness, log relative to wild type (ln ratio); higher = more splicing; Tetrahymena group I intron in knt gene, E. coli kanamycin selection, DiMSum; sequences stand for … in CUCUCU…GGAGGGAAAAGUUAUCAGGCAUGCACCUGGUAGCUAGUCUUUAAACCAAUAGAUUGCAUCGGUUUAAAAGGCAAGACCGUCAAAUUGCGGGAAAGGGGUCAACAGCCGUUCAGUACCAAGUCUCAGGGGAAACUUUGAGAUGGCCUUGCAAAGGGUAUGGUAAUAAGCUGACGGACAUGGUCCUAACCACGCAGCCAAGUCCUAAGUCAACAGAUCUUCUGUUGAUAUGGAUGCAGUUCACAGACUAAAUGUCGGUCGGGGAAGAUGUAUUCUUCUCAUAAGAUAUAGUCGGACCUCUCCUUAAUGGGAGCUAGCGGAUGAAGUGAUGCAACACUGGAGCCGCUGGGAACUAAUUUGUAUGCGAAAGUAUAUUGAUUAGUUUUGGAGUACUCGUGGUCG
Outline: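 Library with all eight P1ex-region intron nucleotides randomised, intron inside the knt kanamycin-resistance gene on pET-22b(+), in E. coli BL21(DE3). Cells grew overnight at 37°C or 30°C on LB agar with or without 25 μg/mL kanamycin (plus 100 μg/mL carbenicillin, 50 μM IPTG, 0.2% rhamnose), in six replicate transformations. Pooled colonies were amplicon-sequenced on Illumina HiSeq 2500. DiMSum fitness is the error-weighted combination of wild-type-normalised replicate fold changes, kanamycin versus none.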

Sequence	self-splicing fitness (ln) (30 °C)	self-splicing fitness (ln) (37 °C)
UAGUAGCAAUAUUACGAUUG	-0.0683 ± 0.084	-0.0425 ± 0.12
UAGUAGCAAUAUUACGCAGU	-2.65 ± 0.21	-1.02 ± 0.14
UAGUAGCAAUAUUACGCCAC		-1.56 ± 0.4
UAGUAGCAAUAUUACGCGGG	-4.02 ± 0.34	-2.49 ± 0.39
UAGUAGCAAUAUUACGCUAU	-1.34 ± 0.21	-1.16 ± 0.25
UAGUAGCAAUAUUACGCUCC	-2.38 ± 0.45	-0.239 ± 0.45
UAGUAGCAAUAUUACGGAAA		-1.49 ± 0.3
UAGUAGCAAUAUUACGGCCA	-1.22 ± 0.26	0.0405 ± 0.27
UAGUAGCAAUAUUACGGCGC	-1.6 ± 0.46	-1.4 ± 0.44
UAGUAGCAAUAUUACGGGUC	-4.67 ± 0.46	-2.97 ± 0.47
UAGUAGCAAUAUUACGGGUU	-3.97 ± 0.27	-2.66 ± 0.2
UAGUAGCAAUAUUACGUACC	-2.29 ± 0.37	-1.21 ± 0.27
UAGUAGCAAUAUUACGUCCG	-0.377 ± 0.21	-0.323 ± 0.36
UAGUAGCAAUAUUACGUUGC		-1.53 ± 0.44
UAUAAGCAAUAUUACGACAC	-1.87 ± 0.21	-1.05 ± 0.26
UAUAAGCAAUAUUACGACAU	-1.09 ± 0.014	-0.413 ± 0.033
UAUAAGCAAUAUUACGACUC	-1.51 ± 0.14	-0.355 ± 0.14
UAUAAGCAAUAUUACGCAAU	-2.11 ± 0.13	-2.1 ± 0.15
UAUAAGCAAUAUUACGCCUA	0.213 ± 0.12	0.0424 ± 0.17
UAUAAGCAAUAUUACGCCUU	-1.31 ± 0.1	-0.179 ± 0.12
UAUAAGCAAUAUUACGCGCU	-0.854 ± 0.18	0.225 ± 0.23
UAUAAGCAAUAUUACGGACA	-0.702 ± 0.11	0.416 ± 0.13
UAUAAGCAAUAUUACGGAUA	-0.466 ± 0.13	-0.208 ± 0.13
UAUAAGCAAUAUUACGGAUC	-2.57 ± 0.15	-1.58 ± 0.18
UAUAAGCAAUAUUACGUCCU	-1.28 ± 0.11	0.43 ± 0.14

Sequence	self-splicing fitness (ln) (30 °C)	self-splicing fitness (ln) (37 °C)
UAUAAGCAAUAUUACGUCGA	-1.56 ± 0.14	-0.891 ± 0.16
UAUAAGCAAUAUUACGUGGG	-2.83 ± 0.14	-2.05 ± 0.12
UAUCAGCAAUAUUACGAAAG	-1.62 ± 0.12	-1.21 ± 0.17
UAUCAGCAAUAUUACGAACC	-1.66 ± 0.24	-0.148 ± 0.38
UAUCAGCAAUAUUACGAACU	-1.2 ± 0.14	0.231 ± 0.13
UAUCAGCAAUAUUACGAAGC	-3.75 ± 0.36	-2.09 ± 0.31
UAUCAGCAAUAUUACGAUAG	-0.799 ± 0.11	0.204 ± 0.15
UAUCAGCAAUAUUACGCCAU	-1.73 ± 0.27	-1.55 ± 0.28
UAUCAGCAAUAUUACGCCGG	-0.251 ± 0.22	0.843 ± 0.26
UAUCAGCAAUAUUACGCGCA	-0.571 ± 0.091	0.506 ± 0.11
UAUCAGCAAUAUUACGCGCG	0.181 ± 0.08	-0.0803 ± 0.1
UAUCAGCAAUAUUACGCGUG	-0.43 ± 0.062	-0.319 ± 0.075
UAUCAGCAAUAUUACGGCCU	-1.64 ± 0.1	0.0592 ± 0.12
UAUCAGCAAUAUUACGGUAG	-1.26 ± 0.083	0.0233 ± 0.087
UAUCAGCAAUAUUACGGUUU	-0.764 ± 0.062	-0.507 ± 0.07
UAUCAGCAAUAUUACGUACC	-2.13 ± 0.18	-0.91 ± 0.21
UAUCAGCAAUAUUACGUAUA	-0.696 ± 0.088	-0.258 ± 0.1
UAUCAGCAAUAUUACGUCGU	-3.02 ± 0.12	-1.6 ± 0.1
UAUCAGCAAUAUUACGUGAA	-0.844 ± 0.083	0.371 ± 0.11
UAUCAGCAAUAUUACGUGAG	0.239 ± 0.054	0.101 ± 0.084
UAUCAGCAAUAUUACGUGCG	-0.0936 ± 0.087	0.327 ± 0.11
UAUCAGCAAUAUUACGUUUC	-2.67 ± 0.21	-1.73 ± 0.22
UAUGAGCAAUAUUACGAACG	-2.98 ± 0.19	-1.13 ± 0.16
UAUGAGCAAUAUUACGAAUC		-1.07 ± 0.26
UAUGAGCAAUAUUACGAGAG	-2.42 ± 0.43	-2.72 ± 0.38

Sequence	self-splicing fitness (ln) (30 °C)	self-splicing fitness (ln) (37 °C)
UAUGAGCAAUAUUACGCAAC	-2.22 ± 0.32	-2.49 ± 0.44
UAUGAGCAAUAUUACGCCGG	-1.7 ± 0.11	-0.905 ± 0.19
UAUGAGCAAUAUUACGCUUA	-3.19 ± 0.41	-1.47 ± 0.26
UAUGAGCAAUAUUACGGACC	-2.56 ± 0.41	-2.43 ± 0.31
UAUGAGCAAUAUUACGGCUA	-0.67 ± 0.14	-1.16 ± 0.16
UAUGAGCAAUAUUACGGUAC	-4.01 ± 0.43	-2.66 ± 0.48
UAUGAGCAAUAUUACGGUUC	-3.43 ± 0.19	-3.82 ± 0.46
UAUGAGCAAUAUUACGUAAG		-2.16 ± 0.19
UAUGAGCAAUAUUACGUAAU	-2.35 ± 0.17	-2.34 ± 0.35
UAUGAGCAAUAUUACGUCCG		-2.19 ± 0.43
UAUGAGCAAUAUUACGUCUG	-0.9 ± 0.13	-0.416 ± 0.15
UAUGAGCAAUAUUACGUGGU		-2.75 ± 0.31
UAUGAGCAAUAUUACGUUGU	-4.16 ± 0.24	-2.27 ± 0.18
UAUUAGCAAUAUUACGAACC	-0.688 ± 0.36	
UAUUAGCAAUAUUACGACAA	-0.602 ± 0.17	-0.127 ± 0.24
UAUUAGCAAUAUUACGACCU	-1.41 ± 0.16	-0.551 ± 0.15
UAUUAGCAAUAUUACGAGCA	-0.606 ± 0.12	-0.18 ± 0.17
UAUUAGCAAUAUUACGAGGG	-3.12 ± 0.3	-2.13 ± 0.3
UAUUAGCAAUAUUACGAGUU	-2.88 ± 0.16	-0.971 ± 0.15
UAUUAGCAAUAUUACGCACU	-1.04 ± 0.19	-1.12 ± 0.16
UAUUAGCAAUAUUACGCAUU	-2.09 ± 0.15	-1.48 ± 0.17
UAUUAGCAAUAUUACGCCAU		-1.68 ± 0.21
UAUUAGCAAUAUUACGCGAC	-3.03 ± 0.25	-1.41 ± 0.24
UAUUAGCAAUAUUACGCGUU	-3.05 ± 0.19	-0.613 ± 0.15
UAUUAGCAAUAUUACGCUGU	-2.57 ± 0.23	0.0696 ± 0.22

Sequence	self-splicing fitness (ln) (30 °C)	self-splicing fitness (ln) (37 °C)
UAUUAGCAAUAUUACGCUUU	-2.01 ± 0.16	-0.435 ± 0.18
UAUUAGCAAUAUUACGGAGC	-2.4 ± 0.42	
UAUUAGCAAUAUUACGUAUA	-1.6 ± 0.18	-2.03 ± 0.21
UAUUAGCAAUAUUACGUAUG	-1.65 ± 0.15	-0.344 ± 0.17
UAUUAGCAAUAUUACGUGCG	-0.929 ± 0.079	-0.636 ± 0.12
UAUUAGCAAUAUUACGUGUA	-1.21 ± 0.16	-0.828 ± 0.16
UAUUAGCAAUAUUACGUUCU	-2.64 ± 0.24	-1.19 ± 0.17
UCAAAGCAAUAUUACGAAAU	-2.52 ± 0.2	-2.53 ± 0.27
UCAAAGCAAUAUUACGAAUA	-1.92 ± 0.43	-1.78 ± 0.3
UCAAAGCAAUAUUACGACAC	-3.05 ± 0.48	-1.97 ± 0.43
UCAAAGCAAUAUUACGAGCU	-2.83 ± 0.23	-1.38 ± 0.22
UCAAAGCAAUAUUACGAGGA	-2.69 ± 0.15	-0.561 ± 0.13
UCAAAGCAAUAUUACGAGGC		-2.69 ± 0.3
UCAAAGCAAUAUUACGAUAC	-3.34 ± 0.28	-2.82 ± 0.28
UCAAAGCAAUAUUACGAUAG	-0.853 ± 0.11	-2.03 ± 0.15
UCAAAGCAAUAUUACGAUGA	-0.6 ± 0.074	-0.51 ± 0.084
UCAAAGCAAUAUUACGCAUG	-1.44 ± 0.12	-1.27 ± 0.14
UCAAAGCAAUAUUACGCCUU	-3.63 ± 0.26	-2.93 ± 0.28
UCAAAGCAAUAUUACGGAAA	-2.64 ± 0.41	-1.15 ± 0.19
UCAAAGCAAUAUUACGGAGG	-3.48 ± 0.28	-1.67 ± 0.21
UCAAAGCAAUAUUACGGGGC	-2.18 ± 0.16	-2.14 ± 0.19
UCAAAGCAAUAUUACGGUAU	-4.12 ± 0.24	-3.55 ± 0.29
UCAAAGCAAUAUUACGUAAC	-3.86 ± 0.21	-2.39 ± 0.27
